In patent publication US20090074795A1, “Methods for addressing ocular diseases through interference with the wnt signaling pathway” (priority 2007, published 2009):

Assays:
Format in all cases: in vivo, rat
[1] = tested on: OIR rats; assay: Pre-retinal NV and HIF-1α in retinal sections of OIR rats
Method: Because pre-retinal NV (vasculature growing into the vitreous space) is a characteristic change of diabetic retinopathy, the effect of DKK1 was evaluated on pre-retinal NV. DKK1 was injected into the right vitreous of the OIR rats and BSA into the left vitreous at P15. At P18, pre-retinal NV was examined in retinal sections. […] Furthermore, the nuclear translocation and expression levels of HIF-1α, a key transcription factor activating VEGF expression, were decreased in the retina of the DKK1-injected eye, compared to the eye treated with BSA.
According to embodiments of experimental data and as shown in FIGS. 20A-20C, Brown Norway (BN) rats were exposed to hyperoxia for 5 days (P7-P12). At age of P15, the rats received a single injection of 3 μg of DKK1 into the vitreous of the right eyes and BSA into the left eyes. The eyes were sectioned at P18. Representative retinal sections from normal control rats (FIG. 20A), eyes of OIR rats injected with BSA (FIG. 20B), and OIR retina injected with DKK1 (FIG. 20C) were triple stained with three antibodies: Retinal vascular EC was stained with an antibody against CD31 (Red); the retinal ischemia stress status was detected by an antibody against GFAP (Blue), and the levels and nuclear translocation of HIF-1α were determined by an antibody against HIF-1α (Green).

[2] = tested on: OIR rats; assay: Retinal NV by fluorescein angiography in OIR rats; details: 3 μl of 1 μg/μl intravitreal at P15, fluorescein angiography at P18, vs BSA
Method: To determine the anti-angiogenic effect of DKK1 on retinal NV, DKK1 was injected (3 μl of 1 μg/μl DKK1) into the vitreous of the OIR rats at P15. At the time, NV had partially formed in the OIR rats at P15. The rats were then maintained in normoxia for 3 days, and then the retinal NV was examined using fluorescein angiography on retinal whole mounts at P18.
According to embodiments of experimental data and as shown in FIGS. 19A-19D, the OIR model was generated by exposure of BN rats to 75% oxygen for 5 days (P7-P12). At age of P15, OIR BN rats received a single intravitreal injection of DKK1 into the right eye and the same amount of BSA into the left eye. At P18, retinal vasculature was visualized using fluorescein angiography on the whole-mounted retinas from the left eye injected with BSA (FIGS. 19A and 19B) and the right eyes injected with DKK1 (FIGS. 19C and 19D) by angiography at P18.
Fluorescein Angiography: Angiograms were performed using intracardiac injection of 10 mg/ml fluorescein isothiocyanate-conjugated high molecular weight dextran (Sigma, FD-2000S) in deeply anesthetized mice. Eyes were dissected and fixed with 4% paraformaldehyde in Hanks' balanced saline prepared immediately before use for overnight at 4° C., and retinas were flat-mounted in Fluoromount-G.

[3] = tested on: STZ-diabetic rats; assay: Retinal ICAM-1 (sICAM-1 ELISA) after intravitreal DKK1 in STZ-diabetic rats; details: different doses intravitreal, STZ-diabetic rats 16 weeks after onset, 2 days after injection, vs BSA
Method: To determine the role of wnt pathway in retinal inflammation in diabetic retinopathy, different doses of purified DKK1, a specific inhibitor of the wnt pathway, was injected into the vitreous of the right eye of STZ-diabetic rats. As shown by ELISA, diabetes induced over-expression of ICAM-1 in the retina.
According to embodiments of experimental data shown in FIG. 13, different doses of purified DKK1 were injected intravitrealy into the right eye of STZ-diabetic rats at 16 weeks following the onset of diabetes, and the same amounts of BSA into the left eye for control. Soluble ICAM-1 was measured at 2 days after the injection using the sICAM-1 ELISA kit, normalized by total protein concentrations and expressed as ng.
Intravitreal injection: All solutions will be sterilized by filtration and assessed for endotoxin. Animals will be anesthetized, and compounds will be injected into the vitreous of the one eye through the pars plana using a Hamilton syringe. The left eye will receive the same volume of vehicle and will be used as the control. Following injection, the animals will receive equal amounts of topical antibiotic ointment on both eyes. The animals will then be kept in normoxic conditions until the necessary time point for evaluation

B1: DKK1: Purified Dickkopf-1 protein (R&D System), specific inhibitor of the wnt pathway binding LRP5/6; mouse protein in mice, human in HUVEC (protein, UniProt O54908 32-272; O54908 32-272, looked up)
Dickkopf-related protein 1 1: TLNSVLINSNAIKNLPPPLGGAGGQPGSAVSVAPGVLYEGGNKYQTLDNYQPYPCAEDEECGSDEYCSSPSRGAAGVGGVQICLACRKRRKRCMRHAMCCPGNYCKNGICMPSDHSHFPRGEIEESIIENLGNDHNAAAGDGYPRRTTLTSKIYHTKGQEGSVCLRSSDCAAGLCCARHFWSKICKPVLKEGQVCTKHKRKGSHGLEIFQRCYCGEGLACRIQKDHHQASNSSRLHTCQRH
Dickkopf-related protein 1 2: B1 Dickkopf-related protein 1 1
modifications: mouse protein in mice, human in HUVEC
nuclear translocation and expression levels of HIF-1α in the retina ([1]; 3 μg intravitreal at P15, sections at P18, vs BSA): decreased
neovascular endothelial cells (EC) in the vitreous space (pre-retinal NV) ([1]; 3 μg intravitreal at P15, sections at P18, vs BSA contralateral eye): significantly fewer
retinal NV areas [2]: decreased retinal NV areas
ICAM-1 over-expression in the retina [3]: inhibited the ICAM-1 over-expression in a dose-dependent manner
